Assay results taken from the supplement of paper PMC6757056.
± gives the standard deviation of the averaged measurements.

B1: library; a variant is named by its letters at N, in order (parent)
chain: GCUGUCACCGGUGCUUGGUACGUUAUAUUCAGCCGGUCUGAUGAGUCUNNNNNNAGACGAAACAGC

Experiments:
(6R,S)-folinic acid [1] = variants of: B1; assay: normalized RNA/DNA level without ligand (relative to sTRSVctl = 100) (log10 (% of sTRSVctl)); HEK293T overexpressing SLC46A1; higher = less ribozyme self-cleavage, higher mRNA level; settings: without (6R,S)-folinic acid; ligand present: no
Procedure, shortened: (§1)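 Total RNA, extracted with EDTA 72 h after HEK293T cells were transfected with 4 µg per 6-well well of reporter-linked ribozyme switch library plasmids, was reverse-transcribed, amplified, barcoded and sequenced. Ligand, if used, was added 1 h before transfection. RNA level was derived from RNA reads divided by DNA reads and normalized to a spiked-in non-cleaving sequence or to the top sequences. This was multiplied by 100 and log10-transformed, with the top set of 25 sequences and a ≥100 DNA read minimum.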

(6R,S)-folinic acid [2] = variants of: B1; assay: normalized RNA/DNA level with ligand (relative to sTRSVctl = 100) (log10 (% of sTRSVctl)); HEK293T overexpressing SLC46A1; ligand concentration (+) RNA-Seq: 6 mM; higher = less ribozyme self-cleavage, higher mRNA level; settings: with (6R,S)-folinic acid; ligand present: yes
Procedure, shortened: as §1

| Variant | normalized RNA/DNA level without ligand (log10) ((6R,S)-folinic acid [1]) | normalized RNA/DNA level with ligand (log10) ((6R,S)-folinic acid [2]) |
| --- | --- | --- |
| CGGAAC | 1.984 ± 0.0056 | 2 ± 0.034 |
| CGGAAA | 1.9343 ± 0.0017 | 1.98 ± 0.045 |
| CGGAAG | 1.94 ± 0.021 | 1.98 ± 0.028 |
| GGGUCA | 2.078 ± 0.0065 | 2.09 ± 0.053 |
| GGGUCU | 2.064 ± 0.0032 | 2.06 ± 0.018 |
| GGGUCC | 2.05 ± 0.022 | 2.06 ± 0.04 |
| GGCUGG | 2.064 ± 0.0042 | 2.05 ± 0.046 |
| GGCUGC | 2.07 ± 0.0054 | 2.05 ± 0.021 |
| GGCUGU | 2.067 ± 0.016 | 2.066 ± 0.019 |
| GGCUGA | 2.094 ± 0.014 | 2.08 ± 0.052 |
| AGGCGG | 2.0398 ± 0.0017 | 2.044 ± 0.01 |
| AGGCGU | 2.02 ± 0.025 | 2.048 ± 0.0022 |
| AGGCGC | 2.057 ± 0.015 | 2.03 ± 0.026 |
| AGGCGA | 2.0336 ± 0.00079 | 2.06 ± 0.023 |
| UGGAUC | 2.039 ± 0.01 | 2.01 ± 0.032 |
| UGGAUA | 1.93 ± 0.022 | 1.99 ± 0.031 |
| AGGUAC | 1.982 ± 0.0027 | 1.995 ± 0.0077 |
| AGGUAA | 1.95 ± 0.024 | 1.98 ± 0.02 |
| AGGUAG | 1.912 ± 0.0057 | 2 ± 0.077 |
| AGGUAU | 2.009 ± 0.0096 | 2.04 ± 0.052 |
| CGCGUC | 2.071 ± 0.0094 | 2.06 ± 0.036 |
| CGCGUU | 2.094 ± 0.014 | 2.07 ± 0.03 |
| CGCGUG | 1.963 ± 0.0059 | 2 ± 0.027 |

| Variant | normalized RNA/DNA level without ligand (log10) ((6R,S)-folinic acid [1]) | normalized RNA/DNA level with ligand (log10) ((6R,S)-folinic acid [2]) |
| --- | --- | --- |
| CGGGAG | 1.932 ± 0.0051 | 2 ± 0.023 |
| CGGCGA | 2.103 ± 0.016 | 2.09 ± 0.026 |
| CGGCGU | 2.05 ± 0.027 | 2.02 ± 0.046 |
| CGGCGC | 2.0778 ± 0.0006 | 2.05 ± 0.029 |
| CGGCGG | 1.968 ± 0.0051 | 2.04 ± 0.041 |
| CGGCCG | 2.038 ± 0.015 | 2.03 ± 0.038 |
| CGGCCC | 2.09 ± 0.035 | 2.04 ± 0.032 |
| CGGCCA | 2.111 ± 0.021 | 2.058 ± 0.0046 |
| CGGCCU | 2.0767 ± 0.00028 | 2.06 ± 0.068 |
| AGGACA | 1.989 ± 0.0041 | 2.02 ± 0.038 |
| AGGACU | 1.993 ± 0.0073 | 2.009 ± 0.017 |
| AGGACG | 1.962 ± 0.0089 | 2.032 ± 0.014 |
| AGGACC | 2.029 ± 0.0033 | 1.99 ± 0.043 |
| GGGCCA | 2.126 ± 0.019 | 2.09 ± 0.041 |
| GGGCCU | 2.098 ± 0.0088 | 2.08 ± 0.036 |
| GGGCCG | 2.091 ± 0.018 | 2.08 ± 0.047 |
| GGGCCC | 2.102 ± 0.0043 | 2.08 ± 0.039 |
| GGGCUG | 2.044 ± 0.0043 | 2.03 ± 0.046 |
| GGGCUA | 2.048 ± 0.0023 | 2.05 ± 0.033 |
| GGGCUU | 2.143 ± 0.0064 | 2.1 ± 0.027 |
| GGGCUC | 2.1006 ± 0.0021 | 2.1 ± 0.021 |
| CGGGGA | 2.104 ± 0.0034 | 2.11 ± 0.065 |
| CGGGGC | 2.03 ± 0.023 | 2.003 ± 0.014 |

| Variant | normalized RNA/DNA level without ligand (log10) ((6R,S)-folinic acid [1]) | normalized RNA/DNA level with ligand (log10) ((6R,S)-folinic acid [2]) |
| --- | --- | --- |
| CGGGGU | 2.039 ± 0.015 | 2.07 ± 0.024 |
| CGGGGG | 1.91 ± 0.034 | 2.05 ± 0.064 |
| CGGCAG | 1.997 ± 0.0087 | 2.01 ± 0.052 |
| CGGCAC | 2.102 ± 0.011 | 2.052 ± 0.0022 |
| CGGCAA | 2.086 ± 0.0085 | 2.05 ± 0.023 |
| AGCUUC | 2.0594 ± 0.00028 | 2.045 ± 0.011 |
| AGCUUA | 1.996 ± 0.0022 | 2.01 ± 0.062 |
| AGCUUU | 2.014 ± 0.0092 | 2.016 ± 0.018 |
| AGGGAA | 1.965 ± 0.0039 | 2.01 ± 0.025 |
| AGGGAU | 1.949 ± 0.0057 | 1.98 ± 0.031 |
| GGGGCG | 2.073 ± 0.016 | 2.06 ± 0.045 |
| GGGGCA | 2.054 ± 0.0064 | 2.02 ± 0.025 |
| GGGGCU | 2.079 ± 0.017 | 2.055 ± 0.0086 |
| UGGCGG | 1.8196 ± 0.0011 | 1.99 ± 0.056 |
| UGGCGA | 1.98 ± 0.0056 | 2.067 ± 0.0097 |
| UGGCGC | 2.08 ± 0.027 | 2.05 ± 0.055 |
| UGGCGU | 1.99 ± 0.031 | 2.03 ± 0.05 |
| GGGCAG | 2.03 ± 0.0034 | 2.05 ± 0.057 |
| GGGCAC | 2.003 ± 0.0062 | 2.02 ± 0.041 |
| GGGCAA | 2.046 ± 0.013 | 2.05 ± 0.027 |
| CGGAGA | 1.997 ± 0.017 | 2.03 ± 0.042 |
| CGGAGG | 1.83 ± 0.02 | 1.994 ± 0.01 |
| CGGAGU | 2.019 ± 0.017 | 2.025 ± 0.012 |

| Variant | normalized RNA/DNA level without ligand (log10) ((6R,S)-folinic acid [1]) | normalized RNA/DNA level with ligand (log10) ((6R,S)-folinic acid [2]) |
| --- | --- | --- |
| CGGAGC | 1.994 ± 0.0049 | 2 ± 0.032 |
| UGGACU | 2.006 ± 0.0056 | 2.01 ± 0.023 |
| UGGCAC | 2.041 ± 0.016 | 2.04 ± 0.042 |
| UGGCAA | 1.97 ± 0.024 | 2.01 ± 0.033 |
| UGGCAU | 1.965 ± 0.014 | 2.01 ± 0.021 |
| GGCUUU | 2.079 ± 0.0033 | 2.041 ± 0.013 |
| GGCUUC | 2.085 ± 0.0026 | 2.08 ± 0.067 |
| GGCUUA | 2.0768 ± 0.0012 | 2.03 ± 0.03 |
| AGCUAG | 1.935 ± 0.002 | 2.01 ± 0.025 |
| AGCUAU | 1.987 ± 0.014 | 2.009 ± 0.018 |
| AGCUAC | 2.029 ± 0.012 | 2.01 ± 0.063 |
| AGCUAA | 2 ± 0.033 | 1.999 ± 0.0025 |
| GGGAGA | 2.021 ± 0.0092 | 2.05 ± 0.043 |
| GGCUAG | 2.063 ± 0.0075 | 2.042 ± 0.004 |
| GGCUAA | 2.036 ± 0.011 | 2.05 ± 0.033 |
| GGCUAU | 2.051 ± 0.0061 | 2.01 ± 0.027 |
| GGCUAC | 2.02 ± 0.042 | 2.05 ± 0.021 |
| AGGAGC | 1.99 ± 0.016 | 2.01 ± 0.04 |
| AGGAGU | 1.934 ± 0.0037 | 2.033 ± 0.014 |
| AGGCUU | 2.03 ± 0.027 | 2.04 ± 0.041 |
| AGGCUG | 2.0598 ± 0.0012 | 2.04 ± 0.0063 |
| AGGAUG | 1.92 ± 0.031 | 2.037 ± 0.019 |
| AGGAUC | 2.059 ± 0.012 | 2.014 ± 0.013 |

| Variant | normalized RNA/DNA level without ligand (log10) ((6R,S)-folinic acid [1]) | normalized RNA/DNA level with ligand (log10) ((6R,S)-folinic acid [2]) |
| --- | --- | --- |
| AGGAUU | 2.024 ± 0.017 | 2.05 ± 0.028 |
| CGGGUG | 1.976 ± 0.0081 | 2.01 ± 0.047 |
| CGGGUU | 2 ± 0.024 | 2 ± 0.051 |
| CGGGUC | 2.078 ± 0.0029 | 2.06 ± 0.038 |
| UGCUUA | 2.003 ± 0.0057 | 2.03 ± 0.026 |
| UGCUUC | 2.04 ± 0.027 | 2.04 ± 0.043 |
| UGCUUU | 2.016 ± 0.0073 | 2.032 ± 0.0036 |
| UGGGCU | 2.06 ± 0.024 | 2.04 ± 0.025 |
| UGGGCA | 1.962 ± 0.0051 | 2.01 ± 0.032 |
| GGGAUA | 2 ± 0.028 | 2.03 ± 0.022 |
| GGGAUC | 2.037 ± 0.0086 | 2.04 ± 0.027 |
| GGGAUU | 2.0271 ± 0.0004 | 2.04 ± 0.047 |
| CGGGCU | 2.09 ± 0.021 | 2.06 ± 0.03 |
| CGGGCC | 2.072 ± 0.0092 | 2.035 ± 0.019 |
| CGGGCA | 2.059 ± 0.0067 | 2.04 ± 0.0044 |
| CGGGCG | 1.993 ± 0.005 | 2.04 ± 0.043 |
| CGCUAA | 1.97 ± 0.019 | 1.99 ± 0.055 |
| CGCUAG | 2.007 ± 0.0038 | 2.025 ± 0.011 |
| CGCUAC | 2.0081 ± 0.001 | 2.03 ± 0.048 |
| CGCUAU | 1.981 ± 0.0029 | 2 ± 0.024 |
| GGGCGU | 2.103 ± 0.0047 | 2.08 ± 0.05 |
| GGGCGA | 2.089 ± 0.0043 | 2.1 ± 0.018 |
| GGGCGC | 2.011 ± 0.016 | 2.04 ± 0.048 |
